{"source": "paper PMC12102759", "about": "(Protein Science : A Publication of the Protein Society, 2025)", "details_in_all_cases": "both partners purified", "key": {"[1]": {"target": "G3BP1 NTF2-like domain (1–139), tag cleaved, for FP (human, UniProt Q13283 1-139)", "sequence (Q13283 1-139)": "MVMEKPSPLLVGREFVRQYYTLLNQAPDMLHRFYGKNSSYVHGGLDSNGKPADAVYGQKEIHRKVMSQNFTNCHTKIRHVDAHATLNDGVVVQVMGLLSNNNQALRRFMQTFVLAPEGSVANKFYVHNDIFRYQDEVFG", "assay": "fluorescence polarisation"}, "[2]": {"target": "SARS-CoV-2 non-structural protein 9 (NSP9) (SARS-CoV-2, UniProt P0DTD1 4141-4253)", "assay": "fluorescence polarisation"}, "[3]": {"target": "SARS-CoV-2 NSP3 UBl1 domain (SARS-CoV-2, UniProt P0DTD1 819-925)", "assay": "fluorescence polarisation"}, "[4]": {"target": "T1, talin-1 phosphotyrosine binding (TLN1 PTB) domain (human, UniProt Q9Y490 309-401)", "T1 construct": "source: E. coli BL21 (DE3), purified (Ni Sepharose, tag cleaved with HRV 3C protease)", "assay": "fluorescence polarisation; displacement: unlabelled peptide in serial dilution added to FITC-labelled probe peptide with the protein at 4x the KD value; 50 mM KPO4 pH 7.5; triplicates; sigmoidal dose-response fit"}, "[5]": {"target": "SARS-CoV-2 NSP3 ADRP domain (SARS-CoV-2, UniProt P0DTD1 1023-1192)", "assay": "fluorescence polarisation"}, "[6]": {"target": "SARS-CoV-2 NSP3 SUD-M domain (SARS-CoV-2, UniProt P0DTD1 1356-1493)", "assay": "fluorescence polarisation"}, "[7]": {"target": "talin-1 phosphotyrosine binding (TLN1 PTB) domain (human, UniProt Q9Y490 309-401)", "assay": "fluorescence polarisation; saturation (direct binding): human bait protein in serial dilution added to 10 nM-master-mix FITC-labeled probe peptide; 50 mM KPO4 pH 7.5, DTT; triplicates; fit to a quadratic equation"}, "[8]": {"target": "T2, talin‐1 PTB domain (309–401), tag cleaved, for FP (human, UniProt Q9Y490 309-401)", "T2 construct": "also called TLN1 PTB; source: E. coli BL21 (DE3), purified (Ni Sepharose, HRV 3C cleavage)", "T2 sequence (Q9Y490 309-401)": "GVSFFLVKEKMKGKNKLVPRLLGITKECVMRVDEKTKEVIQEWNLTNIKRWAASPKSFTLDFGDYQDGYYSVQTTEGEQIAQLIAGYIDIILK", "assay": "fluorescence polarisation; human domains; saturation with FITC-labelled probe peptide or displacement by unlabelled peptide; 50 mM KPO4 pH 7.5, DTT; triplicates; the text does not tell which of the two gave each KD"}}, "note": "No end group written: not given here. *: point of attachment. FITC = O=C1OC2(c3ccc(O)cc3Oc3cc(O)ccc32)c2ccc(NC(=S)*)cc21", "data": [{"binder": "APRITFGGPSDSTGS", "note": "[wildtype SARS‐CoV‐2 N_(12–26) peptide]", "values": [{"measurement": "Kd", "setting": "[1]", "value": 2.3, "unit": "µM"}]}, {"binder": "AEGIDIGEMPSYDLVL (FITC on the N-terminus, NKRF residues 8-23)", "note": "[FITC-labelled NKRF peptide 8-23]", "values": [{"measurement": "Kd", "setting": "[2]", "value": 15.5, "unit": "µM"}]}, {"binder": "QGAWLGAPEPWEPLLD", "note": "[NOTCH4 wt peptide 1606-1621]", "values": [{"measurement": "IC50", "setting": "[2]", "value": 205, "unit": "µM"}]}, {"binder": "SDEGALLDQLYLALRN (FITC on the N-terminus)", "note": "[FITC-labelled NCOA2 peptide 1074-1089]", "values": [{"measurement": "Kd", "setting": "[3]", "value": 67, "unit": "µM"}]}, {"binder": "Ac-LADLIFTDSKLYIPLE-NH2", "note": "[TPTE2 wt peptide 92-107]", "values": [{"measurement": "IC50", "setting": "[4]", "value": 15, "unit": "µM"}]}, {"binder": "Ac-LADLIFTDSKLYLPLE-NH2", "note": "[TPTE2_I104L peptide 92-107]", "values": [{"measurement": "IC50", "setting": "[4]", "value": 14, "unit": "µM"}, {"measurement": "Kd", "setting": "[4]", "value": 4.5, "unit": "µM"}]}, {"binder": "Ac-LADLIYTDSKLYIPLE-NH2", "note": "[TPTE2_F97Y peptide 92-107]", "values": [{"measurement": "IC50", "setting": "[4]", "value": 440, "unit": "µM"}]}, {"binder": "Ac-LADLIFTDSALYIPLE-NH2", "note": "[TPTE2_K101A peptide 92-107]", "values": [{"measurement": "IC50", "setting": "[4]", "value": 45, "unit": "µM"}, {"measurement": "Kd", "setting": "[4]", "value": 15, "unit": "µM"}]}, {"binder": "Ac-LADLIWTDSKLYIPLE-NH2", "note": "[TPTE2_F97W peptide 92-107]", "values": [{"measurement": "IC50", "setting": "[4]", "value": 0.4, "unit": "µM"}]}, {"binder": "Ac-LADLIFTDSKLYAPLE-NH2", "note": "[TPTE2_I104A peptide 92-107]", "values": [{"measurement": "IC50", "setting": "[4]", "value": 55, "unit": "µM"}]}, {"binder": "Ac-LADLIFTDSKLWIPLE-NH2", "note": "[TPTE2_Y103W peptide 92-107]", "values": [{"measurement": "IC50", "setting": "[4]", "value": 66, "unit": "µM"}]}, {"binder": "Ac-LADLIFTDNKLYIPLE-NH2", "note": "[TPTE2_S100N peptide 92-107]", "values": [{"measurement": "IC50", "setting": "[4]", "value": 5.2, "unit": "µM"}]}, {"binder": "GSTYLHPLSELLGIPL (FITC on the N-terminus)", "note": "[FITC-labelled MBOAT1 peptide 16-31]", "values": [{"measurement": "Kd", "setting": "[5]", "value": 50.8, "unit": "µM"}]}, {"binder": "QFTEEDLHFVLYGVTPY", "note": "[PRDM14 wt peptide 196-211]", "values": [{"measurement": "IC50", "setting": "[6]", "value": 400, "unit": "µM"}]}, {"binder": "{FITC}-FPTDERSWVYSPLHYS (source: synthetic peptide (GeneCust))", "note": "[FITC-labeled PIP5K1C probe peptide FITC-FPTDERSWVYSPLHYS]", "values": [{"measurement": "Kd", "setting": "[7]", "value": 0.065, "unit": "µM"}]}, {"binder": "PSDEGALLDQLYLALR", "note": "[NCOA2 wt peptide 1073-1088]", "values": [{"measurement": "IC50", "setting": "[3]", "value": 139, "unit": "µM"}]}, {"binder": "LADLIFTDSKLYIPLE (source: synthetic peptide (GeneCust))", "note": "[wild‐type TPTE2_(92‐107) peptide]", "values": [{"measurement": "Kd", "setting": "[8]", "value": 4.5, "unit": "µM"}]}, {"binder": "LADLIFTDSKLYLPLE (source: synthetic peptide (GeneCust))", "note": "[TPTE2 I104L peptide]", "values": [{"measurement": "binding result", "setting": "[8]", "value": "binds"}]}, {"binder": "LADLIFTDSKLWIPLE (source: synthetic peptide (GeneCust))", "note": "[TPTE2 Y103W peptide]", "values": [{"measurement": "Kd", "setting": "[8]", "value": 22, "unit": "µM"}]}, {"binder": "LADLIFTDNKLYIPLE (source: synthetic peptide (GeneCust))", "note": "[TPTE2_(92‐107) S100N peptide]", "values": [{"measurement": "Kd", "setting": "[8]", "value": 1.7, "unit": "µM"}]}, {"binder": "LADLIWTDSKLYIPLE (source: synthetic peptide (GeneCust))", "note": "[TPTE2_(92‐107) F97W peptide]", "values": [{"measurement": "Kd", "setting": "[8]", "value": 0.1, "unit": "µM"}]}, {"binder": "LADLIYTDSKLYIPLE (source: synthetic peptide (GeneCust))", "note": "[TPTE2_(92‐107) F97Y peptide]", "values": [{"measurement": "Kd", "setting": "[8]", "value": 150, "unit": "µM"}]}, {"binder": "LADLIFTDSKLYAPLE (source: synthetic peptide (GeneCust))", "note": "[TPTE2 I104A peptide]", "values": [{"measurement": "Kd", "setting": "[8]", "value": 18, "unit": "µM"}]}, {"binder": "FTEEDLHFVLYGVTPS (FITC on the N-terminus)", "note": "[FITC-labelled PRDM14 peptide 197-212]", "values": [{"measurement": "Kd", "setting": "[6]", "value": 19, "unit": "µM"}]}, {"binder": "STYLHPLSELLGIPLD", "note": "[MBOAT1 wt peptide 17-32]", "values": [{"measurement": "IC50", "setting": "[5]", "value": 175, "unit": "µM"}]}]}
